This note sets out measurements from PMC12739106, “Phosphate deficiency reduces nodule formation through a phosphate starvation response-like protein in Phaseolus vulgaris”.

The target in this data set is T1, PvPHR-L7 (formerly PvPHR1) (Phaseolus vulgaris, UniProt B4YEQ7 1-327).
T1 sequence: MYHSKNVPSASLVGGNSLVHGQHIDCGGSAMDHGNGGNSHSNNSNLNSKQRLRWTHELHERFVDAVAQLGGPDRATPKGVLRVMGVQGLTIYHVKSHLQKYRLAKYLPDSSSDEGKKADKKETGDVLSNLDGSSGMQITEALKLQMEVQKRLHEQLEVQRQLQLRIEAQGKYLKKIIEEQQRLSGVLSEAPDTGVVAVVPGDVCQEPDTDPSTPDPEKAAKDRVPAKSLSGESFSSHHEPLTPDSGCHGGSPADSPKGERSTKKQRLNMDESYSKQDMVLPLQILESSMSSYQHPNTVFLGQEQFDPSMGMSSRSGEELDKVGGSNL
Nature of the data set: EMSA; poly(dI-dC); outcompeted by unlabeled same-sequence probe (50, 100 or 200 nM); LightShift Chemiluminescent EMSA kit, 1x binding buffer, 50 ng/ul poly(dI-dC), 1 unit protein, 0.1 'mmol' biotin probe, unlabeled competitor 5, 10, 20 'mmol' (legend: 50, 100, 200 nM); salt, pH and temperature not stated. The following applies: protein: recombinant; tags: His (pDEST17, N-terminal); chain copies: 2; 5' implied by name; blunt.

B1: PvTML promoter P1BS probe (dsDNA)
DNA 1: GAAATTAATATAAAAAGCATATACTAAAATTAAGCATATGTT
DNA 2: AACATATGCTTAATTTTAGTATATGCTTTTTATATTAATTTC
On to B1, for which the binding result is reported as “binds”.

B2: PvNIN promoter P1BS probe (dsDNA)
DNA 1: CAATTTCATTCTATAGCATATGCAACATTTTAGACAAAATCA
DNA 2: TGATTTTGTCTAAAATGTTGCATATGCTATAGAATGAAATTG
With B2, the binding result is recorded as “binds”.
